EP4703384A1 (Chia Tai Tianqing Pharmaceutical Group Co., Ltd., dated 2026)
Positions count from the first letter of the chain named.

B1: Chi-169 (antibody, human IgG1, kappa, V domains shown)
VH: EVKLVESGGGLVKPGASLKLSCAASGFTFSNYGMSWVRQTSDKRLEWVASISSGGGRIYYPDNVKGRFTISRENAKNTLYLQMSSLKSEDTALYYCTRHAMDNWGQGTSVIVSS
VL: QIVLTQSPAIMSASPGEKVTMTCSASSSVSNMYWYQQKSGTSPKRWIYDTSKLASGVPARFSGSGSGTSYSLTISSMEAEDASTYYCQQWSSNPLTFGAGTTLELKR
notes: Human-mouse chimeric antibody, human IgG1 heavy chain constant region and Kappa light chain constant region; also called chimeric antibody Chi-169
B2: Chi-89 (antibody, human IgG1, kappa, V domains shown)
VH: EVQLVESGGDLVKPGGSLKLSCAASGFTFSSYGMSWVRQTPDKRLEWVATISSGGSYTYYPDSVKGRFTFSRDNAKNTLYLQMSSLKSEDTAMYYCVRQALRYHMDSWGQGTSVTVSS
VL: DIVMTQSQKFMSTSVGDRVSVTCKASQNVGTNVAWYQQKPGQSPKALIYSASYRYSGVPDRFTGSGSGTDFTLTISNVQSEDLADFFCQQYYSYPWTFGGGTKLEIKR
notes: Human-mouse chimeric antibody, human IgG1 heavy chain constant region and Kappa light chain constant region; also called chimeric antibody Chi-89
B3: Chi-105 (antibody, human IgG1, kappa, V domains shown)
VH: EVQLQQSGPELVKPGASVKMSCKASGYTFTDYYMNWVKQSHGKSLEWIGYIYPNNGGTGYNQRFKGKATLTADKSSSTAYMELRSLTSEDSAVYYCARWGGTRLGYYAMDYWGQGTSVTVSS
VL: B2 VL with A34V, A46L, S50W, Y53T, Y55H, S56T, F86Y, Y92S, S93R, W96Y
notes: Human-mouse chimeric antibody, human IgG1 heavy chain constant region and Kappa light chain constant region
B4: Chi-131 (antibody, human IgG1, kappa, V domains shown)
VH: EVQLQQSGPELVKPGASVKMSCKASGYTFTNYVMHWVKQKPGQGLEWIGYFNPYNDGTNYNEKFKGKATLTSDKSSNTAYMELSSLTSEDSAVYYCARGGVRRYFDVWGAGTTVTVSS
VL: DIQMTQSPSSLSASLGERVSLTCRASQDIGSNLNWLQLGPDGTIKRLIYATFSLDSGVPKRFSGSRSGSDYSLTISSLESEDFVDYYCQQYANFPPTFGGGTKLEIKR
notes: Human-mouse chimeric antibody, human IgG1 heavy chain constant region and Kappa light chain constant region; also called chimeric antibody Chi-131
B5: Chi-128 (antibody, human IgG1, kappa, V domains shown)
VH: DVQLVESGGGLVQPGGSRKVSCAASGFTFSSFGMHWVRQAPEKGLEWVAYISRGSSTIYYADTVKGRFTISRDNPKNTLFLQMTSLRSEDTAMYYCARSGYGSSSYYFDYWGQGTTLTVSS
VL: ENVLTQSPAIMSASPREKVTMTCRASSSIRSSYLHWYQQKSGASPKLWIYSTSNLASGVPARFSGSGSGTSYSLTISSVEAEDAATYYCQQFSGYPLTFGGGTKLEIKR
notes: as for B3
B6: GC35 (bispecific antibody, human IgG1, kappa, L234A L235A)
heavy: EVQLVQSGAEVVKPGASVKMSCKASGYTFTNYVMHWVKQAPGQGLEWMGYFNPYNDGTNYNEKFKGRVTLTSDTSANTAYMELSSLRSEDTAVYYCARGGVRRYFDVWGQGTTVTVSSASTKGPSVFPLAPSSKSTSGGTAALGCLVKDYFPEPVTVSWNSGALTSGVHTFPAVLQSSGLYSLSSVVTVPSSSLGTQTYICNVNHKPSNTKVDKKVEPKSCDKTHTCPPCPAPEAAGGPSVFLFPPKPKDTLMISRTPEVTCVVVDVSHEDPEVKFNWYVDGVEVHNAKTKPREEQYNSTYRVVSVLTVLHQDWLNGKEYKCKVSNKALAAPIEKTISKAKGQPREPQVCTLPPSREEMTKNQVSLSCAVKGFYPSDIAVEWESNGQPENNYKTTPPVLDSDGSFFLVSKLTVDKSRWQQGNVFSCSVMHEALHNHYTQKSLSLSPGK
light: DIQMTQSPSSLSASVGDRVTITCRASQDIGSNLNWLQLGPGGAIKRLIYATFSLDSGVPSRFSGSRSGSDYTLTISSLQPEDFVDYYCQQYANFPPTFGGGTKVEIKRTVAAPSVFIFPPSDEQLKSGTASVVCLLNNFYPREAKVQWKVDNALQSGNSQESVTEQDSKDSTYSLSSTLTLSKADYEKHKVYACEVTHQGLSSPVTKSFNRGEC
chain: ELVVTQEPSLTTSPGGTVTLTCRSSTGAVTTSNYANWVQQKPGQAPRGLIGGTNKRAPGTPARFSGSLLGGKAALTITGVQPEDEAEYYCALWYSNLWVFGGGTKLTVLGGGGSGGGGSGGGGSEVQLVESGGGLVQPGGSLRLSCAASGFTFNTYAMNWVRQAPGKGLEWVARIRSKYNNYATYYADSVKDRFTISRDDSKNTAYLQMNNLKTEDTAMYYCVRHGNFGNSYVSWFAYWGQGTLVTVSSGEPKSSDKTHTCPPCPAPEAAGGPSVFLFPPKPKDTLMISRTPEVTCVVVDVSHEDPEVKFNWYVDGVEVHNAKTKPREEQYNSTYRVVSVLTVLHQDWLNGKEYKCKVSNKALAAPIEKTISKAKGQPREPQVYTLPPCREEMTKNQVSLWCLVKGFYPSDIAVEWESNGQPENNYKTTPPVLDSDGSFFLYSKLTVDKSRWQQGNVFSCSVMHEALHNRYTQKSLSLSPGK
notes: also called anti-GPRC5D/anti-CD3 bispecific antibody GC35
B7: GC39 (bispecific antibody, human IgG1, kappa, L234A L235A)
heavy: EVQLVESGGGLVQPGGSRRVSCAASGFTFSSFGMHWVRQAPGKGLEWVAYISRGSSTIYYADTVKGRFTISRDNAKNSLYLQMNSLRAEDTAVYYCARSGYGSSSYYFDYWGQGTTVTVSSASTKGPSVFPLAPSSKSTSGGTAALGCLVKDYFPEPVTVSWNSGALTSGVHTFPAVLQSSGLYSLSSVVTVPSSSLGTQTYICNVNHKPSNTKVDKKVEPKSCDKTHTCPPCPAPEAAGGPSVFLFPPKPKDTLMISRTPEVTCVVVDVSHEDPEVKFNWYVDGVEVHNAKTKPREEQYNSTYRVVSVLTVLHQDWLNGKEYKCKVSNKALAAPIEKTISKAKGQPREPQVCTLPPSREEMTKNQVSLSCAVKGFYPSDIAVEWESNGQPENNYKTTPPVLDSDGSFFLVSKLTVDKSRWQQGNVFSCSVMHEALHNHYTQKSLSLSPGK
light: EIVLTQSPATLSASPGERATMSCRASSSIRSSYLHWYQQKPGQSPRLWIYSTSNLASGVPARFSGSGSGTDYTLTISSLEPEDAAVYYCQQFSGYPLTFGGGTKVEIKRTVAAPSVFIFPPSDEQLKSGTASVVCLLNNFYPREAKVQWKVDNALQSGNSQESVTEQDSKDSTYSLSSTLTLSKADYEKHKVYACEVTHQGLSSPVTKSFNRGEC
chain: B6 chain
notes: also called anti-GPRC5D/anti-CD3 bispecific antibody GC39

Assays:
[1] = molecular target: T1, GPRC5C (human, UniProt Q9NQ84 24-441); test: FACS on CHO-K1-GPRC5C cells
T1 construct: Full length on CHO-K1 cells; also called RAIG3; Human GPRC5C

[2] = molecular target: T2, GPRC5A (human, UniProt Q8NFJ5 1-357); test: FACS on CHO-K1-GPRC5A cells
T2 construct: Full length on CHO-K1 cells; also called RAIG1; Human GPRC5A

[3] = molecular target: T3, GPRC5B (human, UniProt Q9NZH0 29-403); test: FACS on CHO-K1-GPRC5B cells
T3 construct: Full length on CHO-K1 cells; also called RAIG2; Human GPRC5B

[4] = molecular target: T4, mouse GPRC5D (mouse, UniProt Q9JIL6 1-344); test: FACS on CHO-K1-murineGPRC5D cells
T4 construct: Full length, on stably transfected CHO-K1 cells; also called murineGPRC5D; CHO-K1-murineGPRC5D
T4 sequence: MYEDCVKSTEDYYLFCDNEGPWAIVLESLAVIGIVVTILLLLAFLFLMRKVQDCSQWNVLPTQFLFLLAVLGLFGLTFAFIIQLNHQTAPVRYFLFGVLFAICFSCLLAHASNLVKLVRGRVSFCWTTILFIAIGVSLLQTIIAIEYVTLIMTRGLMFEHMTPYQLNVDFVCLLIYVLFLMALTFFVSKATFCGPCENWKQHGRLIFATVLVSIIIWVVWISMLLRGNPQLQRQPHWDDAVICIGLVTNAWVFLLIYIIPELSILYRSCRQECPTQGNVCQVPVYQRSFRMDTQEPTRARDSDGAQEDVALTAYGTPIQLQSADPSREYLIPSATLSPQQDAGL

[5] = molecular target: T5, human GPRC5D protein (human, UniProt Q9NZD1 1-345); test: FACS on CHO-K1-hGPRC5D^hi cells
T5 construct: also called hGPRC5D; CHO-K1-hGPRC5D^hi

[6] = molecular target: T6, monkey GPRC5D (monkey, UniProt Q9NZD1 1-343 (human entry)); test: FACS on CHO-K1-cynoGPRC5D cells
T6 construct: Full length, on stably transfected CHO-K1 cells; also called cynoGPRC5D; CHO-K1-cynoGPRC5D
T6 chain: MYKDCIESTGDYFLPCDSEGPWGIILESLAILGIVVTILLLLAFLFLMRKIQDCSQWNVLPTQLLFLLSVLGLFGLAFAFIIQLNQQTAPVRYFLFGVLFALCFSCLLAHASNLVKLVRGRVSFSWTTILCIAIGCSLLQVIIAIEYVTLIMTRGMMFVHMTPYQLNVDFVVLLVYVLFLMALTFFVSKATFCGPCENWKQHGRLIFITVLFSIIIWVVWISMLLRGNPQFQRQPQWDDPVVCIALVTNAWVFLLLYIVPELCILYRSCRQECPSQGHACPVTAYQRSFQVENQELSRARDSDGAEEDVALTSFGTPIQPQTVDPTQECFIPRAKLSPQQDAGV

[7] = molecular target: T7, T cell surface CD3 (human, UniProt P07766 23-207; P04234 22-171; P09693 23-182); test: FACS on human CD3+ T cells
T7 construct: CD3 is a complex of several chains; also called CD3^+ T cells

[8] = molecular target: T5, human GPRC5D protein; test: cell-based or functional assay
[9] = molecular target: T5, human GPRC5D protein; test: FACS on MM.1S cells
[10] = molecular target: T7, T cell surface CD3; test: cell-based or functional assay
[11] = molecular target: T5, human GPRC5D protein; test: FACS on NCI-H929 cells
[12] = molecular target: T5, human GPRC5D protein; test: FACS on RPMI-8226 cells

T5 sequence (Q9NZD1 whole entry): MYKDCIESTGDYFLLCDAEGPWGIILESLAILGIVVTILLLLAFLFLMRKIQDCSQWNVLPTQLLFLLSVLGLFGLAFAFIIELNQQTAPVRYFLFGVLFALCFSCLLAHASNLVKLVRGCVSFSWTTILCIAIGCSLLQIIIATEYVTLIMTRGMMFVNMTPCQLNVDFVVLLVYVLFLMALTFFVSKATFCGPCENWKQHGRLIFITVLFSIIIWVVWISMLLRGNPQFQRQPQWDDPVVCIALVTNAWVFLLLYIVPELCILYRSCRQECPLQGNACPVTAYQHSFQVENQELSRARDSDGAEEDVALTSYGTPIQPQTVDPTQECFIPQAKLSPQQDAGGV
T2 sequence (Q8NFJ5 whole entry): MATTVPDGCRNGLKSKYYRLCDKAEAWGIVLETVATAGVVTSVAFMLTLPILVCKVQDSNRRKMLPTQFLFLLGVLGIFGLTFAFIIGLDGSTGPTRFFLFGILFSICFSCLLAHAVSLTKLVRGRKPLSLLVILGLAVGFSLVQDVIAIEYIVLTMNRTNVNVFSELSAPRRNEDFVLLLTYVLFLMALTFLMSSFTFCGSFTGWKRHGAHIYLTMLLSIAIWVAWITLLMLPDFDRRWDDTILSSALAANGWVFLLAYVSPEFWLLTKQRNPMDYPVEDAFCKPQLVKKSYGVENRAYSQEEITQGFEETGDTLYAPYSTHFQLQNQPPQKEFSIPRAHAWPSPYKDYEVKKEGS
T1 sequence (Q9NQ84 24-441 limits assumed): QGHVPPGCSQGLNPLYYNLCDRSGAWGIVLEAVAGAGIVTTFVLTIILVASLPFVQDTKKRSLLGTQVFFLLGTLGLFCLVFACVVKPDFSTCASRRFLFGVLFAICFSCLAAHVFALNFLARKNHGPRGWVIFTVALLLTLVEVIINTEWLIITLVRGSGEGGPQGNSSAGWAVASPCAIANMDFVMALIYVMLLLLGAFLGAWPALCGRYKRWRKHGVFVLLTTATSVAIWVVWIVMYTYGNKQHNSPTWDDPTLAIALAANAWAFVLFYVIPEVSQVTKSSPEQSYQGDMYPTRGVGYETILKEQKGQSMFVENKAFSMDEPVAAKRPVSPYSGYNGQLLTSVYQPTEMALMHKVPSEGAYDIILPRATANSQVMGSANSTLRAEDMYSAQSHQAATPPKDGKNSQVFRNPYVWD
T7 sequence (P07766 23-207 limits assumed, chain 1 of 3): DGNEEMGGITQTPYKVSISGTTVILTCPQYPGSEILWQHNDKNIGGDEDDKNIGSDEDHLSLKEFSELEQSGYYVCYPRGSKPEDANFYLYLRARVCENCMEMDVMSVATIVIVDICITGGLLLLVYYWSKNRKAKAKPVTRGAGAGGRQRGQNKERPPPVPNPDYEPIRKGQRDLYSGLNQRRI
T7 sequence (P04234 22-171 limits assumed, chain 2 of 3): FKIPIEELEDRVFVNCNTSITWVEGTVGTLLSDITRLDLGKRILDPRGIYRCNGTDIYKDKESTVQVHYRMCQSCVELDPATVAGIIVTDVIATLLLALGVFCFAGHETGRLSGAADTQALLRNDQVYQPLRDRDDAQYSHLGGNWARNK
T7 sequence (P09693 23-182 limits assumed, chain 3 of 3): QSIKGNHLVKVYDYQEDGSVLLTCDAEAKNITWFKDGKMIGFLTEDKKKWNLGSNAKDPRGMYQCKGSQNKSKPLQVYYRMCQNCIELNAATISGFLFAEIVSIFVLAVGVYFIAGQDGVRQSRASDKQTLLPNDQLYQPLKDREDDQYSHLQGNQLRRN
T3 sequence (Q9NZH0 29-403 limits assumed): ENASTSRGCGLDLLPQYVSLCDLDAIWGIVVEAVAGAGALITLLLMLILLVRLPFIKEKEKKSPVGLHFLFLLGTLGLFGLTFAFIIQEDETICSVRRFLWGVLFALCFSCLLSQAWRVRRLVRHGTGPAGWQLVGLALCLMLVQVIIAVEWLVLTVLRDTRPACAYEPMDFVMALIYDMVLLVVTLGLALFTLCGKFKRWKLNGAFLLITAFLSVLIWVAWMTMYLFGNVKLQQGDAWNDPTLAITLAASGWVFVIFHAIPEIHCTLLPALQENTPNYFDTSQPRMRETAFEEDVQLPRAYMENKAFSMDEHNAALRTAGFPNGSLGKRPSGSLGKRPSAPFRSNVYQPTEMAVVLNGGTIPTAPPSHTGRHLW

binding result [1] | binding result [2] | binding result [3] | binding result [4] | binding result [5] | binding result [6] | EC50 [7] [nM] | Top(MFI) [7] [MFI] | Lysis EC50(nM), MM.1S target cells with human PBMC [8] [nM] | Lysis EC50(nM), NCI-H929 target cells with human PBMC [8] [nM] | Lysis EC50(nM), RPMI-8226 target cells with human PBMC [8] [nM] | EC50 [9] [nM] | CD25/CD4 EC50(nM), activation of T cells in the presence of MM.1S [10] [nM] | CD25/CD8 EC50(nM), activation of T cells in the presence of MM.1S [10] [nM] | CD69/CD4 EC50(nM), activation of T cells in the presence of MM.1S [10] [nM] | CD69/CD8 EC50(nM), activation of T cells in the presence of MM.1S [10] [nM] | EC50 [11] [nM] | EC50 [12] [nM] | Binder
no binding (tested: 4.1-3000 ng/mL) | no binding (tested: 4.1-3000 ng/mL) | no binding (tested: 4.1-3000 ng/mL) | binds | binds | binds | – | – | – | – | – | – | – | – | – | – | – | – | B1
no binding (tested: 4.1-3000 ng/mL) | no binding (tested: 4.1-3000 ng/mL) | no binding (tested: 4.1-3000 ng/mL) | binds | binds | binds | – | – | – | – | – | – | – | – | – | – | – | – | B2
no binding (tested: 4.1-3000 ng/mL) | no binding (tested: 4.1-3000 ng/mL) | no binding (tested: 4.1-3000 ng/mL) | – | binds | binds | – | – | – | – | – | – | – | – | – | – | – | – | B3
no binding (tested: 4.1-3000 ng/mL) | no binding (tested: 4.1-3000 ng/mL) | no binding (tested: 4.1-3000 ng/mL) | binds | binds | binds | – | – | – | – | – | – | – | – | – | – | – | – | B4
no binding (tested: 4.1-3000 ng/mL) | no binding (tested: 4.1-3000 ng/mL) | no binding (tested: 4.1-3000 ng/mL) | binds | binds | binds | – | – | – | – | – | – | – | – | – | – | – | – | B5
– | – | – | – | – | – | 48.9 | 54700 | 0.00534 | 0.00592 | 0.0163 | 3.75 | 0.00999 | 0.00879 | 0.00738 | 0.00458 | 3.04 | 15.9 | B6
– | – | – | – | – | – | 37.9 | 38000 | 0.0335 | 0.0146 | 0.136 | 3.71 | 0.0596 | 0.0448 | 0.0438 | 0.0226 | 16.7 | – | B7
